Experimental data as given in patent US6329500A, “Transforming growth factor-β binding site” (University of Virginia Patent Foundation, priority 1999, dated 2001).

What was measured:
TGF-β2 [1] = target: T1, TGF-β2 (Homo sapiens, UniProt P61812); assay: Ligand blot analysis of 125I-TGF-β2 binding to PVDF-immobilized proteins; conditions: SDS-PAGE, PVDF membrane, 125I-TGF-β2 20 pM, 2 h at 25° C.
T1 construct: purchased Genzyme (Cambridge, Mass.)
T1 sequence (P61812 303-414 limits assumed): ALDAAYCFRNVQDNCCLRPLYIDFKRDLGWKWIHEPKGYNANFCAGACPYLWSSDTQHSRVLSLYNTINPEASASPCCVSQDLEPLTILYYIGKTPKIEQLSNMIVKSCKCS
Protocol: To block free sulfhydryls, some samples were treated with 5 mM IAM for 2 h at 25° C. Equivalent amounts of each protein ([…]) were subjected to SDS-PAGE on 10% slabs. IAM-treated GST-α2 M-peptide fusion proteins were subjected to SDS-PAGE as well. All samples were electro-transferred to PVDF membranes. The membranes were blocked with 5% milk and 0.1% Tween 20 in PBS for 12 h at 4° C. and then rinsed with 0.1% Tween 20 in PBS (PBS-T). […] Biophys. Res. Commun. […] NGF-β was radioiodinated with Iodogen, to a specific activity of 2-5 μCi/μg, using the method recommended by the manufacturer. […] After washing the membranes with PBS-T, bound radioligands were detected by Phosphorlmager analysis.

TGF-β1 [2] = target: T2, TGF-β1 (Homo sapiens, UniProt P01137); assay: Endothelial cell proliferation assay, neutralization of TGF-β1 by fusion proteins; format: cell-based
T2 construct: purchased R&D Systems (Minneapolis, Minn.)
Protocol: (§1) Fetal bovine heart endothelial (FBHE) cells were cultured in DMEM supplemented with 10% FBS, 20 ng/ml acidic fibroblast growth factor, and 80 ng/ml basic fibroblast growth factor and passaged at subconfluence with trypsin-EDTA. To perform proliferation assays, the cells were plated at a density of 2×10^4 /well (24 well plates) in DMEM supplemented with 0.2% FBS. […] The fusion proteins were preincubated with the TGF-β for 15 min prior to addition to the cultures. At the completion of an incubation, the cultures were washed 3 times with serum-free DMEM and then allowed to incubate in DMEM with 0.2% FBS for 30 h. [^3 H]Thymidine was added for an additional 18 h; the cells were then harvested and [^3 H]thymidine incorporation was quantitated.

TGF-β2 [3] = target: T1, TGF-β2; assay: 125I-TGF-β2 binding to immobilized α2M-MA, solution-phase competition; conditions: increasing concentrations (4-250 nM)
Protocol: The wells were washed three times with PBS-T and blocked with PBS-T for 16 h at 4° C. […] In the presence of a fusion protein (FP) which binds TGF-β, the total concentration of TGF-β [βT ] was related to [βF ], at equilibrium, as follows: [βT ]=[βF ](1+[FP]/KI).

TGF-β2 [4] = target: T1, TGF-β2; assay: Binding of 125I-TGF-β2 to FP3 and FP4 in solution as determined by FPLC on Superose-12; conditions: fusion protein 0.5 μM, 125I-TGF-β2 0.5 nM, 30 min 37° C., n=2
Protocol: The flow rate was 0.4 ml/min. […] To calibrate the FPLC, the following proteins were subjected to chromatography on the same column: soybean trypsin inhibitor (Mr~21,500, Ve of 14.1 ml), ovalbumin (Mr~45,000, Ve of 12.9 ml), BSA (Mr~66,000, Ve of 12.1 ml), and BSA dimer (Mr~132,000, Ve of 10.9 ml).

RAW 264.7 cells = assay: NO synthesis (nitrite in conditioned medium) by RAW 264.7 cells; format: cell-based, murine; conditions: 250 nM, SFM, 24 h
Protocol: NO synthesis by RAW 264.7 cells was quantitated by measuring the stable NO oxidation product, nitrite, in conditioned medium, as previously described (Anal. Biochem. 126, 131-138 (1982)). […] The fusion proteins were purified and detergent-free. After 24 h, conditioned medium (100 μl) was recovered and nitrite was measured. […] Biol, Chem. 270, 21919-21927 (1995)). The α2 M-induced increase in RAW 264.7 cell NO synthesis is inhibited by the NOS inhibitor, N^G -monomethyl-L-arginine.

TGF-β2 [5] = target: T1, TGF-β2; assay: Endothelial cell proliferation assay, neutralization of TGF-β2 by fusion proteins; format: cell-based
Protocol: as §1

TGF-β2 [6] = target: T1, TGF-β2; conditions: read-out: KD for TGF-β2 (either TGF-β isoform); cited from earlier work
TGF-β1 [7] = target: T2, TGF-β1; conditions: read-out: KD for TGF-β1 (either TGF-β isoform); cited from earlier work
FBHE cells = assay: Endothelial cell proliferation assay, TGF-β alone; format: cell-based, bovine; conditions: TGF-β 10 pM, 1 h pulse
Protocol: as §1

B1: FP4: GST-fusion protein with human α2M amino acids 798-1082 (protein)
chain: CIRVSVQLEASPAFLAVPVEKEQAPHCICANGRQTVSWAVTPKSLGNVNFTVSAEALESQELCGTEVPSVPEHGRKDTVIKPLLVEPEGLEKETTFNSLLCPSGGEVSEELSLKLPPNVVEESARASVSVLGDILGSAMQNTQNLLQMPYGCGEQNMVLFAPNIYVLDYLNETQQLTPEIKSKAIGYLNTGYQRQLNYKHYDGSYSTFGERYGRNQGNTWLTAFVLKTFAQARAYIFIDEAHITQALIWLSQRQKDNGCFRSSGSLLNNAIKGGVEDEVTLSAYI
modifications: free sulfhydryls blocked with iodoacetamide (IAM)
- 125I-TGF-β2 binding, ligand blot (TGF-β2 [1]): did not bind
- [3H]thymidine incorporation (% control) (TGF-β1 [2]; FBHE cells, fusion protein (0.2 μM) + TGF-β1 (10 pM), 1 h pulse): 31 ± 4%
- Effect on TGF-β1 activity in FBHE proliferation assay (TGF-β1 [2]; fusion protein 200 nM, TGF-β1 10 pM): No change in TGF-β activity
- Inhibition of 125I-TGF-β2 binding to immobilized α2M-MA (TGF-β2 [3]): did not inhibit
- 125I-TGF-β2 recovered (co-eluted) with the fusion protein (TGF-β2 [4]): 6%
- Nitrite production by RAW 264.7 cells (RAW 264.7 cells): did not increase nitrite production
- [3H]thymidine incorporation (% control) (TGF-β2 [5]; FBHE cells, fusion protein (0.2 μM) + TGF-β2 (10 pM), 1 h pulse): 38 ± 6%
- Effect on TGF-β2 activity in FBHE proliferation assay (TGF-β2 [5]; fusion protein 200 nM, TGF-β2 10 pM): No change in TGF-β activity

B2: MUG: monomeric murine homologue of human α2M, purified from plasma of CD-1 female mice (protein)
chain: DSKYMVLVPSQLYTETPEKICLHLYQLNETVTVTASLVSQSGRKNLFDELVLDKDLFQCVSFIIPRLSSSDEEDFLYVDIKGPTHEFSKRKAVLVKNKESVVFVQTDKPVYKPGQSVKFRVVSMDKMLRPLNELLPLAYIEDPKKNRIMQWRDIKTENGLKQMSFSLAAEPIQGPYKIVVHKESGEKEEHSFTVMEFVLPRFNVDLKVPNAMSVNDEVLSVTACGKYTYGKPVPGHVKINVCRETETGCREVNSQLDNNGCSTQEVNITELQSKKRNYEVQLFHVNATVTEEGTGLEFSRSGTTKIERITNKLIFLKADSHFRHGIPFFVKVRLVDIKGDPIPNEKVFIKAQELSYTSATTTDQHGLAEFSIDTTCISGSSLHIKVNHKEEDSCSYFYCMEERHASAKHVAYAVYSLSKSYIYLDTETSSILPCNQIHTVQAHFILKGDLGVLKELIFYYLVMAQGSIIQTGNHTHQVEPGEAPVKGKFALEIPVEFSMVPMAKMLIYTILPDGEVIADSVNFEIEKCLRNKVDLRFSTSQSLPASQTRLQVTASPQSLCGLRAVDQSVLLLKPESELSPSWIYNLPGMQQNKFVPSSRLSEDQEDCILYSSWLAEKHTNLVPHGTEKDVYRYVEDMGLTAFTNLMIKLPIICFDYGMVPISAPRVEFDLAFTPEISWSLRTTLSKRPEEPPRKDPSSNDPLTETIRKYFPETWVWDIVTVNSTGLAEVEMTVPDTITEWKAGALCLSNDTGLGLSSVVPLQAFKPFFVEVSLPYSVVRGEAFMLKATVMNYLPTSMQMSVQLEASPDFTAVPVGDDQDSYCLSANGRHTSSWLVTPKSLGNVNFSVSAEAQQSSEPCGSEVATVPETGRKDTVVKVLIVEPEGIKQEHTFSSLFCASDAEISEKMSLVLPPTVVKDSARAHFSVMGDILSSAIRNTQNLLHMPYGCGEQNMVLFAPNIYVLKYLNETQQLTQKIKTKALGFLRAGYQRELNYKHKDGSYSAFGDQNGEREGNTWLTAFVLKSFAQARAFIFIDESHITHAFTWLSQKQKDNGCFRSSGSLFNNAMKGGVDDEMTLSAYITMALLESSLPATHPVVSKALSCLESSWKTIEQERNASFVYTKALMAYAFALAGNQNKRDEILKSLDEEAIKENNSIHWKRPQKSRKSEHHLYKPQASSAEVEMNAYVVLARLTAQPAPSPEDLTLSMSTIMWLTKQQNSNGGFSSTQDTVVALDALSKYGAVTFSRSQKTTLVTIQSTGSFSQKFQVENSNRLLLQQVALPDIPGDYTISVSGEGCVYAQTMLRYNMHLEKQLSAFAIWVQTVPLTCNNPKGHNSFQISLEISYTGSRPASNMVIADVKMLSGFIPLKPTVKKLERLEHVSRTEVSNNNVLIYLDQVTNQTLAFSFIIQQDIPVRNLQPAIVKVYDYYETDEMAFAEYSSPCSTDKQNV
- 125I-TGF-β2 binding, ligand blot (TGF-β2 [1]): only trace levels
- Kd (TGF-β2 [6]): ~1000 nM
- Kd (TGF-β1 [7]): ~1000 nM

B3: FP1: GST-fusion protein with human α2M amino acids 122-415 (protein)
chain: KFRVVSMDENFHPLNELIPLVYIQDPKGNRIAQWQSFQLEGGLKQFSFPLSSEPFQGSYKVVVQKKSGGRTEHPFTVEEFVLPKFEVQVTVPKIITILEEEMNVSVCGLYTYGKPVPGHVTVSICRKYSDASDCHGEDSQAFCEKFSGQLNSHGCFYQQVKTKVFQLKRKEYEMKLHTEAQIQEEGTVVELTGRQSSEITRTITKLSFVKVDSHFRQGIPFFGQVRLVDGKGVPIPNKVIFIRGNEANYYSNATTDEHGLVQFSINTTNVMGTSLTVRVNYKDRSPCYGYQWVS
modifications: free sulfhydryls blocked with iodoacetamide (IAM)
- 125I-TGF-β2 binding, ligand blot (TGF-β2 [1]): did not bind

B4: FP5: GST-fusion protein with human α2M amino acids 1053-1302 (protein)
chain: DNGCFRSSGSLLNNAIKGGVEDEVTLSAYITIALLEIPLTVTHPVVRNALFCLESAWKTAQEGDHGSHVYTKALLAYAFALAGNQDKRKEVLKSLNEEAVKKDNSVHWERPQKPKAPVGHFYEPQAPSAEVEMTSYVLLAYLTAQPAPTSEDLTSATNIVKWITKQQNAQGGFSSTQDTVVALHALSKYGAATFTRTGKAAQVTIQSSGTFSSKFQVDNNNRLLLQQVSLPELPGEYSMKVTGEGCVYLQ
modifications: free sulfhydryls blocked with iodoacetamide (IAM)
- 125I-TGF-β2 binding, ligand blot (TGF-β2 [1]): did not bind

B5: TGF-β2: transforming growth factor-β2 from Genzyme (protein, UniProt P61812 303-414, looked up)
Transforming growth factor …: ALDAAYCFRNVQDNCCLRPLYIDFKRDLGWKWIHEPKGYNANFCAGACPYLWSSDTQHSRVLSLYNTINPEASASPCCVSQDLEPLTILYYIGKTPKIEQLSNMIVKSCKCS
- Decrease of [3H]thymidine incorporation (FBHE cells): 57%

B6: FP2: GST-fusion protein with human α2M amino acids 364-613 (protein)
chain: RGNEANYYSNATTDEHGLVQFSINTTNVMGTSLTVRVNYKDRSPCYGYQWVSEEHEEAHHTAYLVFSPSKSFVHLEPMSHELPCGHTQTVQAHYILNGGTLLGLKKLSFYYLIMAKGGIVRTGTHGLLVKQEDMKGHFSISIPVKSDIAPVARLLIYAVLPTGDVIGDSAKYDVENCLANKVDLSFSPSQSLPASHAHLRVTAAPQSVCALRAVDQSVLLMKPDAELSASSVYNLLPEKDLTGFPGPLND
modifications: free sulfhydryls blocked with iodoacetamide (IAM)
- 125I-TGF-β2 binding, ligand blot (TGF-β2 [1]): did not bind
